Results: the supplement of paper PMC7877785
± gives the uncertainty stated by the source.

Assay: self-splicing fitness, log relative to wild type (ln ratio); higher = more splicing; Tetrahymena group I intron in knt gene, E. coli kanamycin selection, DiMSum; sequences stand for … in CUCUCU…GGAGGGAAAAGUUAUCAGGCAUGCACCUGGUAGCUAGUCUUUAAACCAAUAGAUUGCAUCGGUUUAAAAGGCAAGACCGUCAAAUUGCGGGAAAGGGGUCAACAGCCGUUCAGUACCAAGUCUCAGGGGAAACUUUGAGAUGGCCUUGCAAAGGGUAUGGUAAUAAGCUGACGGACAUGGUCCUAACCACGCAGCCAAGUCCUAAGUCAACAGAUCUUCUGUUGAUAUGGAUGCAGUUCACAGACUAAAUGUCGGUCGGGGAAGAUGUAUUCUUCUCAUAAGAUAUAGUCGGACCUCUCCUUAAUGGGAGCUAGCGGAUGAAGUGAUGCAACACUGGAGCCGCUGGGAACUAAUUUGUAUGCGAAAGUAUAUUGAUUAGUUUUGGAGUACUCGUGGUCG
Outline: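 Pooled colonies went to amplicon sequencing on an Illumina HiSeq 2500 after six replicate transformations. The plates were LB agar with 100 μg/mL carbenicillin, 50 μM IPTG and 0.2% rhamnose, with or without 25 μg/mL kanamycin, incubated overnight at 37°C or 30°C. The E. coli BL21(DE3) library had all eight P1ex-region intron nucleotides randomised, the intron placed in the knt kanamycin-resistance gene on pET-22b(+). DiMSum fitness is the error-weighted combination of replicate fold changes, kanamycin against none, normalised to wild type.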

Row | Sequence | self-splicing fitness (ln) (37 °C) | self-splicing fitness (ln) (30 °C)
1 | ACAGAGCAAUAUUACGUUUC | -2.31 ± 0.39 | –
2 | ACAUAGCAAUAUUACGAAGC | -1.85 ± 0.42 | –
3 | ACAUAGCAAUAUUACGACCG | -0.154 ± 0.14 | -0.782 ± 0.098
4 | ACAUAGCAAUAUUACGAGCA | -1.1 ± 0.11 | -2.89 ± 0.12
5 | ACAUAGCAAUAUUACGAGGU | -3.3 ± 0.15 | -3.59 ± 0.16
6 | ACAUAGCAAUAUUACGAUGG | -0.176 ± 0.11 | -1.64 ± 0.088
7 | ACAUAGCAAUAUUACGAUUG | -0.942 ± 0.11 | -2.62 ± 0.1
8 | ACAUAGCAAUAUUACGCCCA | -0.85 ± 0.15 | -0.769 ± 0.13
9 | ACAUAGCAAUAUUACGCGCA | -0.818 ± 0.088 | -0.42 ± 0.076
10 | ACAUAGCAAUAUUACGCGGU | -2.86 ± 0.26 | -3.36 ± 0.17
11 | ACAUAGCAAUAUUACGCUUG | -1.28 ± 0.14 | -1.76 ± 0.11
12 | ACAUAGCAAUAUUACGGAGG | -0.703 ± 0.15 | -3 ± 0.17
13 | ACAUAGCAAUAUUACGGUAC | -2.51 ± 0.27 | -4.24 ± 0.33
14 | ACAUAGCAAUAUUACGGUCG | -0.223 ± 0.1 | -1.62 ± 0.088
15 | ACAUAGCAAUAUUACGUGGG | -2.75 ± 0.12 | -3.52 ± 0.12
16 | ACAUAGCAAUAUUACGUGUC | -2.72 ± 0.28 | -4.9 ± 0.41
17 | ACCAAGCAAUAUUACGACGG | 0.495 ± 0.1 | -0.86 ± 0.08
18 | ACCAAGCAAUAUUACGAGCC | -1.08 ± 0.15 | -3.61 ± 0.2
19 | ACCAAGCAAUAUUACGAGUG | -1.14 ± 0.062 | -2.09 ± 0.052

Row | Sequence | self-splicing fitness (ln) (37 °C) | self-splicing fitness (ln) (30 °C)
20 | ACCAAGCAAUAUUACGAUAU | -2.17 ± 0.095 | -3.22 ± 0.11
21 | ACCAAGCAAUAUUACGAUGU | -1.03 ± 0.073 | -1.7 ± 0.057
22 | ACCAAGCAAUAUUACGCAAG | -2.12 ± 0.12 | -2.05 ± 0.072
23 | ACCAAGCAAUAUUACGCAUU | -1.26 ± 0.077 | -2.81 ± 0.085
24 | ACCAAGCAAUAUUACGCCCA | -0.545 ± 0.17 | -1.06 ± 0.13
25 | ACCAAGCAAUAUUACGCCUG | -2.31 ± 0.25 | -2.05 ± 0.18
26 | ACCAAGCAAUAUUACGCGUG | -1.19 ± 0.07 | -2.41 ± 0.083
27 | ACCAAGCAAUAUUACGGCCU | -0.31 ± 0.083 | -0.444 ± 0.072
28 | ACCAAGCAAUAUUACGGUGC | -2.12 ± 0.23 | -2.72 ± 0.14
29 | ACCAAGCAAUAUUACGUACU | -0.135 ± 0.071 | -0.582 ± 0.049
30 | ACCAAGCAAUAUUACGUAUA | -2.36 ± 0.12 | -3.38 ± 0.16
31 | ACCAAGCAAUAUUACGUCAC | -2.89 ± 0.27 | -3.68 ± 0.47
32 | ACCAAGCAAUAUUACGUCCU | 0.0592 ± 0.075 | -0.777 ± 0.058
33 | ACCAAGCAAUAUUACGUGAA | -1.54 ± 0.091 | -2.5 ± 0.08
34 | ACCAAGCAAUAUUACGUGAG | -0.649 ± 0.086 | -1.19 ± 0.07
35 | ACCAAGCAAUAUUACGUGUC | -3.34 ± 0.18 | -2.94 ± 0.11
36 | ACCAAGCAAUAUUACGUUUA | -1.82 ± 0.11 | -2.41 ± 0.12
37 | ACCCAGCAAUAUUACGAAAG | -1.47 ± 0.17 | -2.85 ± 0.13
38 | ACCCAGCAAUAUUACGAAGG | -0.892 ± 0.1 | -1.71 ± 0.071
